In article PMC3880865:
Like-named read-outs stand apart in the source and are kept apart here.

Tests used:
CBL47–435 pY371 (human) = CBL47–435 pY371 (human) (UniProt P22681)
[1] = biological target: GST-CBL47–435 M222E (human) (UniProt P22681); assay: SPR
GST-CBL47–435 WT (human) [2] = biological target: GST-CBL47–435 WT (human) (UniProt P22681); assay: SPR
[3] = biological target: GST-CBL47–435 Y368F pY371 (human) (UniProt P22681); assay: SPR
[4] = biological target: GST-CBL47–435 Y371F (human) (UniProt P22681); assay: SPR
Chain of GST-CBL47–435 Y371F (human) (P22681 47-435 Y371F): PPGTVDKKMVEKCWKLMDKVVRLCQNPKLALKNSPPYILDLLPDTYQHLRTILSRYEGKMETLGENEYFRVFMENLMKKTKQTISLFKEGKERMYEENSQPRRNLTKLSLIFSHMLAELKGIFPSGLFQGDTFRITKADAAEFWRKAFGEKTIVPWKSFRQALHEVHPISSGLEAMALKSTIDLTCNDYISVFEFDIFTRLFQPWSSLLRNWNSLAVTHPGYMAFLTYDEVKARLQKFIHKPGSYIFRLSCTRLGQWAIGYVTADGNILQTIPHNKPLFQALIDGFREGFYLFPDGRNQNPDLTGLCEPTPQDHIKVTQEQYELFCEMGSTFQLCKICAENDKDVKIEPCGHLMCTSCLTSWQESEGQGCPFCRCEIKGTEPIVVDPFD

[5] = biological target: GST-CBL47–435 Y368F (human) (UniProt P22681); assay: SPR
Chain of GST-CBL47–435 Y368F (human) (P22681 47-435 Y368F): as the sequence (P22681 47-435 Y371F) above, with Y322F, F325Y counted along it

GST-CBL47–435 WT (human) [6] = biological target: GST-CBL47–435 WT (human) (UniProt P22681); assay: SPR; remark: listed apart in the source

Chain of UbcH5B (from UniProt P62837 1-147) (enzyme; other documents disagree on this pair) (P62837 whole entry): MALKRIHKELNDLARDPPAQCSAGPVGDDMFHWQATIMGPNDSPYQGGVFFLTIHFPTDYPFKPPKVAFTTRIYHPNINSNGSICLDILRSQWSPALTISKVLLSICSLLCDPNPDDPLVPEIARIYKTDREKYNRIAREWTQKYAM
Chain of GST-CBL47–435 WT (human) (P22681 47-435): as the sequence (P22681 47-435 Y371F) above, with F325Y counted along it
Chain of GST-CBL47–435 Y368F pY371 (human) (P22681 47-435 Y368F): as the sequence (P22681 47-435 Y371F) above, with Y322F, F325Y counted along it
Chain of UbcH5B (from UniProt P62837 1-147) (enzyme) (P62837 whole entry): as the sequence (P62837 whole entry) above
Chain of CBL47–435 pY371 (human) (P22681 47-435): as the sequence (P22681 47-435 Y371F) above, with F325Y counted along it
Chain of GST-CBL47–435 M222E (human) (P22681 47-435 M222E): as the sequence (P22681 47-435 Y371F) above, with M176E, F325Y counted along it

| Km (UbcH5B~Ub) of CBL47–435 pY371 autoubiquitination, Michaelis-Menten, 22°C (CBL47–435 pY371 (human)) [μM] | Kd [1] [µM] | Kd (GST-CBL47–435 WT (human) [2]) [µM] | Kd [3] [µM] | Kd [4] [µM] | Kd [5] [µM] | Kd (GST-CBL47–435 WT (human) [6]) [µM] | Substance |
| --- | --- | --- | --- | --- | --- | --- | --- |
| 6.5 |  |  |  |  |  |  | UbcH5B (from UniProt P62837 1-147) (enzyme) |
|  | 70 | 311 | 28 | 250 | 138 | 244 | UbcH5B (from UniProt P62837 1-147) (enzyme; other documents disagree on this pair) |
|  |  | 17 | 11 |  |  |  | ZAP-70 peptide |
